Assay results taken from US20260008866A1 (published 2026).
Each block holds one binder with its values, some of them ahead of it.

Legend:
Test in all cases: ForteBio Octet (BLI)
[1] = target: 20817
[2] = target: 20814
[3] = target: 20809
[4] = target: 20807
[5] = target: 20812

Kd [1]: 347 pM
Kd [2]: 325 pM
Kd [3]: 1530 pM
Kd [4]: 580 pM
B1: Human (ligand)
chain: LFTVTVPKELYIIEHGSNVTLECNFDTGSHVNLGAITASLQKVENDTSPHRERATLLEEQLPLGKASFHIPQVQVRDEGQYQCIIIYGVAWDYKYLTLKVKASYRKINTHILKVPETDEVELTCQATGYPLAEVSWPNVSVPANTSHSRTPEGLYQVTSVLRLKPPPGRNFSCVFWNTHVRELTLASIDLQSQMEPRTHPT

Kd [1]: 283 pM
Kd [5]: 312 pM
Kd [2]: 310 pM
Kd [3]: 253 pM
Kd [4]: 250 pM
B2: Cyno (Fc fusion)
chain: LFTVTVPKELYIIEHGSNATLECNFDTGSHVNLGAITASLQKVENDTSPHRERATLLEEQLSLGKALFHIPQVQVRDEGQYQCIIIYGVAWDYKYLTLKVKASYRKINTHILKVPETDEVELTCQATGYPLAEVSWPNISVPANTSHSRTPEGLYQVTSVLRLKPHPGRNFSCVFWNAQVRELTLASIDLQSQIEPRTHP
